Laboratory results as given in patent publication US20250197513A1 (University of Texas, published 2025).
Where a chain is given by its changes, count along the chain named. One block for each binder: values may come before it.

Target: T1, recombinant OSMR protein (Sino Biologicals, 11226-H08H), extracellular domain of OSMR (UniProt Q99650 28-740)
T1 construct: extracellular domain; also called OSMR antigen
T1 sequence (looked up): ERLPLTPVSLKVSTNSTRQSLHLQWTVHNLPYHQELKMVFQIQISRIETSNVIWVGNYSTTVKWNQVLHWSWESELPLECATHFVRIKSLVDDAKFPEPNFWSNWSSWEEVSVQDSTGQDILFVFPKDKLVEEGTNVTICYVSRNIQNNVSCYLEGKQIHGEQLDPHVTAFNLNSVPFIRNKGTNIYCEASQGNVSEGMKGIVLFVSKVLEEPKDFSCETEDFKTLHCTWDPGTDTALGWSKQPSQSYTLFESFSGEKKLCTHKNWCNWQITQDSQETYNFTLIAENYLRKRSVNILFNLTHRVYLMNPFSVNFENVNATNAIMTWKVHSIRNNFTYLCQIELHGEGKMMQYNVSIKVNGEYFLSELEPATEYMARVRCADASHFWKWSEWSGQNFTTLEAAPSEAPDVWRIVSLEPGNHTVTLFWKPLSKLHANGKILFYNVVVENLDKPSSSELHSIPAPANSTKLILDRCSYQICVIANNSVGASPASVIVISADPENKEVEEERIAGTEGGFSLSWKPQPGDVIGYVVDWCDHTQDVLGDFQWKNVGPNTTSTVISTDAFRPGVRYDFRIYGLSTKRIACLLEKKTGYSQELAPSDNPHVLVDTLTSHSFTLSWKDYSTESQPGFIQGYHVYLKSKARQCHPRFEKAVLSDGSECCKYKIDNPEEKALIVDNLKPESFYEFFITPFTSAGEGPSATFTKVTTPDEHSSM
Experiment: screening of full-length IgG1 clones on recombinant OSMR extracellular domain

binding result: binds
B11: B08 monoclonal antibody (antibody, V domains shown)
VH: QVQLVQSGGGLVKPGGSLRLSCAASGFTFSSYSMNWVRQAPGKGLEWVSSISSSSSYIYYADSVKGRFTISRDNAKNSLYLQMNSLRAEDTAVYYCARDIALPYYGMDVWGQGTMVTVSS
VL: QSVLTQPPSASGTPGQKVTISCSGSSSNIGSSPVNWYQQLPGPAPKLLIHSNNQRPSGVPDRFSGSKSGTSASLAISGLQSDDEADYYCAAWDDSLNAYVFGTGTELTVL
notes: also called B08 mAb

binding result: binds
B12: B02 monoclonal antibody (antibody, V domains shown)
VH: QVELQESGSGLVKPSQTLSLTCAVSGGSISSGGYSWSWIRQPPGKGLEWIGYIYHSGSTYYNPSLKSRVTISVDRSKNQFSLKLSSVTAADTAVYYCARELGYCSSTSCPWGAFDIWGQGTLVSVSS
VL: QAVVTQPPSVSAAPGQKVTISCSGSSSNIGNNYVSWYQQLPGTAPKLLIYDNNKRPSGIPDRFSGSKSGTSATLGITGLQTGDEADYYCGTWDSSLSAVVFGGGTQLTVL
notes: also called B02 mAb

binding result: binds
B13: B01 monoclonal antibody (antibody, V domains shown)
VH: QVQLVQSGAEVKKPGASVKVSCKASGYSFTSYFIHWVRQAPGQGLEWMGIINPAGGNTNYAQRFQGRVTMTRDTSTSTVYMELSSLRSDDTAVYYCARDKDYGEGAFDLWGQGTMVSVSS
VL: QSALTQPPSVSGAPGQRVTISCTGSSSNIGAGYDVHWYQQLPGTAPKLLIYGNSNRPSGVPDRFSGSKSGTSASLAITGLQAEDEADYYCQSYDSSLSGWVFGGGTKVTVL
notes: also called B01 mAb

binding result: binds
B14: H09 monoclonal antibody (antibody, V domains shown)
VH: EVQLVQSGAEVKKPGASVKVSCKASGYTFTGYYMHWVRQAPGHGLEWMGWINPNSGGTNYAQKFQGRVTMTRDTSISTAYMELSGLRSDDTAVYYCARDKGAWSGSYPGYNWFDPWGQGTLVTVSS
VL: QAVVTQPPSASGTPGQRVTISCSGSSSTIGTNPVNWYRHLPGTAPKLLIYSNNQRPSGVPDRVSGSKSGTSASLAISGLQSEDEADYYCATLDDSLNGYVFGTGTKVTVL
notes: also called H09 mAb

binding result: binds
B15: B19 monoclonal antibody (antibody, V domains shown)
VH: QVELVESGGGLVQPGRSLRLSCAASGFTFDDYAMHWVRQAPGKGLEWVSGISWNSGSIGYADSVKGRFTISRDNAKNSLYLQMNSLRAEDTALYYCAKDIGVYYYGMDVWGQGTTVSVSS
VL: QSALTQPPSASGTPGQKVTISCSGSSSNIGSSPVNWYQQFPGPAPKLLIHSNNQRPSGVPDRFSGSKSGTSASLAISGLQSDDEADYYCAAWDDSLNAYVFGTGTKVTVL
notes: also called B19 mAb

binding result: binds
B16: H13 monoclonal antibody (antibody, V domains shown)
VH: QVQLVQSGAEVKKPGASVKVSCKVSGYSFSSHGISWVRQAPGQGLEWMGWISAYNGNTNYAQNLQGRVRMTTDTSTNTAHMELRSLRSDDTAVYYCARDQDEANWNNNYYFDYWGQGTLVTVSS
VL: NFMLTQPHSVSESPGKTVTISCTGSSGSIASKYVQWYQQRPGSAPTSVIYEDNQRPSGVPDRFSGSIDRSSNSASLTISGLKTEDEADYHCQSYDSANRVVFGGGTKVTVL
notes: also called H13 mAb

binding result: binds
B17: B17 monoclonal antibody (antibody, V domains shown)
VH: QVELQESGPGLVQPSGTLSLTCAVSGGSMGSSNWWSWVRQPPGKGLEWIGEVYHTGSTNYNPSLRSRVTISVDKSKKQFSLELTSVTAADTAVYFCARDLTVTGSFDIWGQGTMVTVSS
VL: QAVVTQPRSVSGSPGQSVTISCTGSSSDVGAYNYVSWYQQHPGKAPKLIISDVSDWPSGVPDRFSGSKSGNTASLTISGLQADDEADYYCFSYAGNYNWVFGGGTKLTVL
notes: also called B17 mAb

binding result: binds
B18: H14 monoclonal antibody (antibody, V domains shown)
VH: QVQLVQSGAEVKKPGSSVKVSCKASGGTFSSYAISWVRQAPGQGLEWMGGIIPIFGTANYAQKFQGRVTITADESTSTAYMELSSLRSEDTAVYYCAREATPFMILGAFDIWGQGTMVIVSS
VL: not shown
notes: also called H14 mAb

binding result: binds
B19: H11 monoclonal antibody (antibody, V domains shown)
VH: EVQLVQSGPEVRKPGASVQISCKASGYTFTTSYIHWVRQAPGQGLEWLGLVNPNDGSTTYTQNFQGRVTMTSDTSTSTVYMELSRVTYADTAVYYCAKDIRDYVWGTYRYESAFDIWGQGTTVTVSS
VL: QAVVTQPPSVSVSPGQTASITCSGDKLGDKYVSWYQQKPGQPPILVMYQDNRRPSGIPERFSGSNSGNTATLTISGTQAMDEADYYCQTWDSSTASYVFGTGTKVTVL
notes: also called H11 mAb

binding result: binds
B20: B06 monoclonal antibody (antibody, V domains shown)
VH: QVQLVESGGGLVQPGRSLRLSCAASGFTFDDYAMHWVRQAPGKGLEWVSGISWNSGSIGYADSVKGRFTISRDNAKNSLYLQMNSLRAEDTALYYCAKDITSSGWYWFDYWGQGTLVTVSS
VL: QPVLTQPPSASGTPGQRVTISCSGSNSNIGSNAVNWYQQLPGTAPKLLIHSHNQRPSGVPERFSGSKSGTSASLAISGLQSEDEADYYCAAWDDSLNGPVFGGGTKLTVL
notes: also called B06 mAb

binding result: binds
B21: B10 monoclonal antibody (antibody, V domains shown)
VH: QVQLVQSGAEVKKPGASVKVSCKASGYTFTSYYMHWVRQAPGQGLEWMGIINPSGGSTSYAQKFQGRVTMTRDTSTSTVYMELSSLRSEDTAVYYCARDKAHDSSGYYDAFDIWGQGTTVTVSS
VL: QSALTQPPSASGTPGQRVTISCSGSGSNIGSNTVNWYQQLPGTAPRLLIYRNNQRPSGVPDRFSGSKSGTSASLAISGLESEDEADYFCATWDDSLNDYVFATGTQLTVL
notes: also called B010; B10 mAb

binding result: binds
B22: B04 monoclonal antibody (antibody, V domains shown)
VH: EVQLVQSGGGVVQPGRSLRLSCAASGFTFSSYAMHWVRQAPGKGLEWVAVISYDGSNKYYADSVKGRFTISRDNSKNTLYLQMNSLRAEDTAVYYCARESGVSGDYYYYGMDVWGQGTMVTVSS
VL: AIQLTQSPSSLSASVGDRVTITCQASQDIKNYLNWYQQRPGKAPKLLIYDASNLETGVPSRFSGGGSGTDFTFTISSLQPEDIATYYCQHYDSLPITFGQGTRLEIK
notes: also called B04 mAb

Further lines, the binder ahead of its results:

B1: B09 monoclonal antibody (antibody, V domains shown)
VH: QVQLVQSGAEVKKPGSSVKVSCKTSGGTFSSYAISWVRQAPGQGLEWMGGIIPISGTANYAQKLQGRVTITADESTSTAYMELSSLRSEDTAVYYCGRGDYCNGGSCSYTNYYGMDVWGQGTMVTVSS
VL: QAVVTQPPSASGTPGQRSTISCSGGSANIGSNSVHWYQQFPGTAPKLLIFNNNQRPSGVPDRFSGSKSGTSASLAISGLQSEDEADYFCAAWDDSLKGPVFGGGTKVTVL
notes: also called B09 mAb
binding result: binds

B2: B13 monoclonal antibody (antibody, V domains shown)
VH: B1 VH with Q1E, T24A, S35T, S55V, L64F, V68L, G97A, N103S, M123T
VL: not shown
notes: also called B13 mAb
binding result: binds

B3: H12 monoclonal antibody (antibody, V domains shown)
VH: B1 VH with Q1E, A61P, V93M, G97A, M123T, T125I
VL: QSALTQPPSVSVAPGKTAMITCGGTNIRSQNVHWYQQKPGQAPVLVIYWDSSRPSGIPERISGSNSGSTATLTISRVEAGDEADYYCQVWDATRDHVVFGGGTKVTVL
notes: also called H12 mAb
binding result: binds

B4: H10 monoclonal antibody (antibody, V domains shown)
VH: QVQLVQSGAEVKKPGASVKVSCKASGYTFTSYYMHWVRQAPGQGLEWMGIINPSGGSTSYAQKFQGRVTMTRDTSTSTVYMELSSLRSEDTAVYYCARGTTYDAFDIWGQGTTVSVSS
VL: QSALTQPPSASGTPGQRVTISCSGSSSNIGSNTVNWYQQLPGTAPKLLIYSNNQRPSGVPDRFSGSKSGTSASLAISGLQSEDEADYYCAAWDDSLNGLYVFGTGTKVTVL
notes: also called H10 mAb
binding result: binds

B5: H16 monoclonal antibody (antibody, V domains shown)
VH: QVQLLQSGAEVKKPGSSVKVSCKASGGTFSSYAISWVRQAPGQGLEWMGGIIPIFGTANYAQKFQGRVTITADESTSTAYMELSSLRSEDTAVYYCASSYYGSGTTWFDPWGQGTLVTVSS
VL: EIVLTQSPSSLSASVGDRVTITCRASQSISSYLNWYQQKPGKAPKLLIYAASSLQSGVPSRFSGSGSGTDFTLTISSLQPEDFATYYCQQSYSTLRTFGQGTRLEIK
notes: also called H16 mAb
binding result: binds

B6: B05 monoclonal antibody (antibody, V domains shown)
VH: QVQLVESGGGVVRPGGSLRLSCAASGFTFDDYGMSWVRQAPGKGLEWVSGINWNGGSTGYADSVKGRFTISRDNAKNSLYLQMNSLRAEDTALYHCARVNYDSSGLRGAFDIWGQGTTVTVSS
VL: AIQLTQSPSSLSASVGDRVTITCQASQDISNYLNWYQQKPGKAPKLLIYDASNLETGVPSRFSGSGSGTDFTFTISSLQPEDIATYYCQQYDNLPTFGQGTRLEIK
notes: also called B05 mAb
binding result: binds

B7: B07 monoclonal antibody (antibody, V domains shown)
VH: B6 VH with T118M
VL: NIQMTQSPSSLSASVGDRVTITCQASQYISNSLNWYQQKPGKAPNLLLYDATNLEPGVPSRFSGSGSRTDFTLTISSLQPEDIATYYCQQYHNLPPTFGQGTRLEIK
notes: also called B07 mAb
binding result: binds

B8: B03 monoclonal antibody (antibody, V domains shown)
VH: B6 VH with T118M, T120I
VL: B22 VL with A1D, Q3V, L4M, K30S, R39K, G65S, H90Q, S93N
notes: also called B03 mAb
binding result: binds

B9: B16 monoclonal antibody (antibody, V domains shown)
VH: B6 VH with Q3E
VL: B6 VL with A1D, I2V, L4M
notes: also called B016; B16 mAb
binding result: binds

B10: B12 monoclonal antibody (antibody, V domains shown)
VH: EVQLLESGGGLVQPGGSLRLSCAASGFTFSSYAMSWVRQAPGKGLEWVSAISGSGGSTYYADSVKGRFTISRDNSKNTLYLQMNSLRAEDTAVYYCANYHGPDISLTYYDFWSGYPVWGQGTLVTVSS
VL: QSALTQPHSVSESPGKTVTISCTRSSGSIANNHVQWYQQRPGSAPIIVIYEDNQRPSGVPDRFSGSIDSSSNSASLTLSGLKTEDEAAYYCQSYDDNNWVFGGGTKVTVL
notes: also called B12 mAb
binding result: binds
